Measured values from patent US10822593B2, “Alcohol dehydrogenase mutant and application thereof in synthesis of diaryl chiral alcohols” (priority 2018, dated 2020).

Assays:
Type in all cases: biochemical
[1] = biological target: alcohol dehydrogenase KpADH, wild type, SEQ ID No. 2 (Vanderwaltozyma polyspora, UniProt A7TM80); assay: Kinetic analysis, reduction of CPMK by wild type KpADH; settings: substrate CPMK, coenzyme NADPH, pH 7.0, 30° C.
Experimental: (§1) Adopting a total reaction system of 200 μL, including: 1.0 mM NADPH, 1.0 mM substrate CPMK and sodium phosphate buffer (PBS, 100 mM, pH 7.0), fully and evenly mixing, maintaining at 30° C. for 2 min, adding an appropriate amount of enzyme solution, and detecting the change in light absorption at 340 nm.
(§2) The enzyme activity was calculated by the following formula: […]
(§3) in the formula, EW is the change in absorbance at 340 nm in 1 min; V is the volume of a reaction solution in mL; 6220 is the molar extinction coefficient of NADPH in L/(mol·cm); and 1 is the optical path distance in cm. One activity unit (U) corresponds to the amount of enzyme required to catalyze the oxidation of 1 μmol NADPH per minute under the above conditions.
(§4) A column used for purification was a nickel affinity column HisTrap FF crude, and purification was achieved through affinity chromatography using a histidine tag on recombinant protein. The nickel column was equilibrated with a solution A first, a crude enzyme solution was loaded, a penetrating peak was further eluted off using the solution A, and after equilibrium, a solution B (20 mM sodium phosphate, 500 mM NaCl, and 1000 mM imidazole, pH 7.4) was used for gradient elution to elute off the recombinant protein bound to the nickel column, so as to obtain the recombinant alcohol dehydrogenase mutant. The purified protein was subjected to activity measurement (CPMK as substrate, and NADPH as coenzyme) and SDS-PAGE analysis. […] The purified alcohol dehydrogenase protein was then replaced into a Tris-HCl (100 mM, pH 7.0) buffer using a Hi Trap Desalting column (GE Healthcare).
(§5) The activity of KpADH at different substrate concentrations and coenzyme concentrations was determined, and a double reciprocal curve was made based on the reciprocal of activity and substrate concentration to calculate kinetic parameters.

[2] = test system: O=C(c1ccc(Cl)cc1)c1ccccn1; assay: Kinetic analysis, reduction of CPMK by mutant M1; settings: other: substrate CPMK, coenzyme NADPH, pH 7.0, 30° C.
Experimental: In an embodiment of the present disclosure, the mutant includes the substitution of valine for serine at position 196 of the alcohol dehydrogenase with the amino acid sequence shown in SEQ ID No. 2, which is named M1.
as §1, §2, §3, §4, §5

[3] = test system: O=C(c1ccc(Cl)cc1)c1ccccn1; assay: Kinetic analysis, reduction of CPMK by mutant M2; settings: other: substrate CPMK, coenzyme NADPH, pH 7.0, 30° C.
Experimental: In an embodiment of the present disclosure, the mutant includes the substitution of tryptophan for serine at position 196 of the alcohol dehydrogenase with the amino acid sequence shown in SEQ ID No. 2, which is named M2.
as §1, §2, §3, §4, §5

[4] = test system: O=C(c1ccc(Cl)cc1)c1ccccn1; assay: Kinetic analysis, reduction of CPMK by mutant M3; settings: other: substrate CPMK, coenzyme NADPH, pH 7.0, 30° C.
Experimental: In an embodiment of the present disclosure, the mutant includes the substitution of proline for serine at position 196 of the alcohol dehydrogenase with the amino acid sequence shown in SEQ ID No. 2, which is named M3.
as §1, §2, §3, §4, §5

[5] = test system: O=C(c1ccc(Cl)cc1)c1ccccn1; assay: Kinetic analysis, reduction of CPMK by mutant M4; settings: other: substrate CPMK, coenzyme NADPH, pH 7.0, 30° C.
Experimental: In an embodiment of the present disclosure, the mutant includes the substitution of glycine for serine at position 196 of the alcohol dehydrogenase with the amino acid sequence shown in SEQ ID No. 2, which is named M4.
as §1, §2, §3, §4, §5

[6] = test system: O=C(c1ccc(Cl)cc1)c1ccccn1; assay: Kinetic analysis, reduction of CPMK by mutant M5; settings: other: substrate CPMK, coenzyme NADPH, pH 7.0, 30° C.
Experimental: In an embodiment of the present disclosure, the mutant includes the substitution of glycine for serine at position 196 of the alcohol dehydrogenase with the amino acid sequence shown in SEQ ID No. 2, and the substitution of valine for phenylalanine at position 161, which is named M5.
as §1, §2, §3, §4, §5

[7] = test system: O=C(c1ccc(Cl)cc1)c1ccccn1; assay: Kinetic analysis, reduction of CPMK by wild type KpADH; settings: other: substrate CPMK, coenzyme NADPH, pH 7.0, 30° C.
Experimental: as §1, §2, §3, §4, §5

Work on O=C(c1ccc(Cl)cc1)c1ccccn1 [CPMK, (4-chlorophenyl)-(pyridin-2-yl)-methanone] yielded a Kcat/Km [1] of 28900 M⁻¹ s⁻¹.
“alcohol dehydrogenase KpADH (SEQ ID No. 2) mutant M1, S196V (Vanderwaltozyma polyspora DSM 70294; S196V)” was tested, and the Km [2] was 720 µM, the Vmax [2] was 21.3 µmol/min/mg and the kcat [2] was 17 s⁻¹. The kcat/Km [2] was 23600 M⁻¹ s⁻¹.
“alcohol dehydrogenase KpADH (SEQ ID No. 2) mutant M2, S196W (Vanderwaltozyma polyspora DSM 70294; S196W)” gave a Km [3] of 702 µM, a Vmax [3] of 21.3 µmol/min/mg and a kcat [3] of 14.2 s⁻¹. The kcat/Km [3] was 20300 M⁻¹ s⁻¹.
“alcohol dehydrogenase KpADH (SEQ ID No. 2) mutant M3, S196P (Vanderwaltozyma polyspora DSM 70294; S196P)” was tested, and the Km [4] was 604 µM, the Vmax [4] was 22.3 µmol/min/mg and the kcat [4] was 14.8 s⁻¹. For the same compound, the kcat/Km [4] was 24600 M⁻¹ s⁻¹.
Compound “alcohol dehydrogenase KpADH (SEQ ID No. 2) mutant M4, S196G (Vanderwaltozyma polyspora DSM 70294; S196G)” has a Km [5] of 730 µM, a Vmax [5] of 26.5 µmol/min/mg and a kcat [5] of 17.6 s⁻¹. It also gave a kcat/Km [5] of 24100 M⁻¹ s⁻¹.
Compound “alcohol dehydrogenase KpADH (SEQ ID No. 2) mutant M5, S196G/F161V (Vanderwaltozyma polyspora DSM 70294; F161V/S196G)” has a Km [6] of 690 µM, a Vmax [6] of 17.7 µmol/min/mg and a kcat [6] of 11.8 s⁻¹. It also gave a kcat/Km [6] of 17100 M⁻¹ s⁻¹.
Work on “alcohol dehydrogenase KpADH, wild type, SEQ ID No. 2 (Vanderwaltozyma polyspora DSM 70294)” yielded a Km [7] of 410 µM, a Vmax [7] of 17.9 µmol/min/mg and a kcat [7] of 11.8 s⁻¹. It also gave a kcat/Km [7] of 28900 M⁻¹ s⁻¹.
